Assay results: publication PMC2275077 (Nucleic Acids Research, 2008)

T1: TAP-tagged HMO1 (S. cerevisiae, UniProt Q03973 1-246)
T1 sequence: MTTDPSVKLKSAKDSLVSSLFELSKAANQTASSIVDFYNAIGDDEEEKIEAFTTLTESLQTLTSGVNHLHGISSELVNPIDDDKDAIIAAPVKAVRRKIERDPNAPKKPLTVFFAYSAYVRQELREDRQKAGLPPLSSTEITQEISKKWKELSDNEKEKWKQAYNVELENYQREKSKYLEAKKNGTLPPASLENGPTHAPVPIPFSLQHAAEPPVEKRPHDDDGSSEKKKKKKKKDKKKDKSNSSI

B1: TAF11 (natural protein)
chain: MTEPQGPLDTIPKVNYPPILTIANYFSTKQMIDQVISEDQDYVTWKLQNLRTGGTSINNQLNKYPKYKYQKTRINQQDPDSINKVPENLIFPQDILQQQTQNSNYEDTNTNEDENEKLAQDEQFKLLVTNLDKDQTNRFEVFHRTSLNKTQVKKLASTVANQTISENIRVFLQAVGKIYAGEIIELAMIVKNKWLTSQMCIEFDKRTKIGYKLKKYLKKLTFSIIENQQYKQDYQSDSVPEDEPDFYFDDEEVDKRETTLGNSLLQSKSLQQSDHNSQDLKLQLIEQYNKLVLQFNKLDVSIEKYNNSPLLPEHIREAWRLYRLQSDTLPNAYWRTQGEGQGSMFR
B2: TAF1 (natural protein)
chain: MVKQQGSGKTNLANEDEAYEAIFGGEFGSLEIGSYIGGDEGANSKDYTEHLPDAVDFEDEDELADDDDDLPEESDANLHPAMMTMGAYDDVNENGAVLGIDSNSLNMQLPEINGDLSQQFILEDDGGTPATSNALFMGMDANEIHLATETGVLDGSGANEIGHSQLSIGGVNGNDMSINGGFIMEPDMSDGKHKKATKLDLINHEKYLLKKYFPDFEKGKILKWNKLIYRRSVPYHWHSEISRVKKPFMPLNLKFKVQQDDKRLFNSRTISYVAPIYQGKNNLLQSNSSASRRGLIHVSIDELFPIKEQQKKRKIIHDEKTISEDLLIATDDWDQEKIINQGTSSTATLADSSMTPNLKFSGGYKLKSLIEDVAEDWQWDEDMIIDAKLKESKHAELNMNDEKLLLMIEKTNNLAQQKQQLDSSNLILPLNETILQQKFNLSNDDKYQILKKTHQTKVRSTISNLNIQHSQPAINLQSPFYKVAVPRYQLRHFHRENFGSHIRPGTKIVFSKLKARKRKRDKGKDVKESFSTSQDLTIGDTAPVYLMEYSEQTPVALSKFGMANKLINYYRKANEQDTLRPKLPVGETHVLGVQDKSPFWNFGFVEPGHIVPTLYNNMIRAPVFKHDISGTDFLLTKSSGFGISNRFYLRNINHLFTVGQTFPVEEIPGPNSRKVTSMKATRLKMIIYRILNHNHSKAISIDPIAKHFPDQDYGQNRQKVKEFMKYQRDGPEKGLWRLKDDEKLLDNEAVKSLITPEQISQVESMSQGLQFQEDNEAYNFDSKLKSLEENLLPWNITKNFINSTQMRAMIQIHGVGDPTGCGEGFSFLKTSMKGGFVKSGSPSSNNNSSNKKGTNTHSYNVAQQQKAYDEEIAKTWYTHTKSLSISNPFEEMTNPDEINQTNKHVKTDRDDKKILKIVRKKRDENGIIQRQTIFIRDPRVIQGYIKIKEQDKEDVNKLLEEDTSKINNLEELEKQKKLLQLELANLEKSQQRRAARQNSKRNGGATRTENSVDNGSDLAGVTDGKAARNKGKNTTRRCATCGQIGHIRTNKSCPMYSSKDNPASPK

Biological target: T1, TAP-tagged HMO1
Test: TAP purification with immunoblot

Binder	percent recovered with HMO1-TAP [%]
B1	~0.01
B2	~0.01
